According to the nanobody polyreactivity screen of Harvey et al. (2022):

Assay: yeast display, Sf9 membrane polyspecificity reagent, FACS + sequencing; frameworks hold sequencing errors
How it was run: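 Genes from sorted yeast were amplified by colony PCR, read by MiSeq 2 × 250 sequencing and filtered on CDR length. These cells carried a synthetic nanobody library in Saccharomyces cerevisiae BJ5465 and were sorted by FACS into low and high (top ~1%) gates on anti-HA and streptavidin fluorescence. Polyreactivity is labelled according to the gate of origin.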

| Sequence | polyreactivity (PSR sort gate) |
| --- | --- |
| QVQLVESGGGLVQAGGSLRLSCAAYGIIFYYYAMGWYRQAPGKERELVAAITGTGSRTYYADSVKGRFTISRDNAKNTVYLQMNSLKPEDTAVYYCNARSFATGSEVPARGYWGQGTQVTVSS | high polyreactivity |
| QVQLVESGGGLVQAGGSLRLSCAAYGINFYKYAMVWSRQAPGQERELVASITKSAGSTNYADSDKGRFTISRDNAMNTVYLQMNSLKPEDTAVYYCAARRFTFNLFDYWGQGTQVTVSS | high polyreactivity |
| QVQLVESGGGLVQAGGSLRLSCAAYGITLYKYAMGWYRQAPGKERELVASISRSGGSTYYADSVKGRFTISRDNAKNTVYLEMNSLKPEDTAVYYCAKAVWWSRPAQKSYLYYYWGHGTQVTVSS | high polyreactivity |
| QVQLVESGGGLVQAGGSLRLSCAAYGNIFDGNAMGWYRQAPGKERELVAAITGRGGGTYYADSVKGRFTISRDNAKNTVYLLMNSLKPEDTAVYYCNKYYYRGGMDYWGQGTQVNVSS | high polyreactivity |
| QVQLVESGGGLVQAGGSLRLSCAAYGPTFRYNTMGWNRQAPGKERELDARITWSGGSTYYADSVKGRFTISRDNAKNTVYLQMNSLKPEDTAVYYCAAVPILVYRWFQSYTGDYDYWGQGTHVTVSS | low polyreactivity |
| QVQLVESGGGLVQAGGSLRLSCAAYGRIFAYYTMGWYRQAPGKERELVAAINQSGGSTYYADSVKGRFTISRDNAKNTVYFQMNSLKPEDTAVYYCAAKPYSLYARRYAYDYWGQGTQVTVSS | low polyreactivity |
| QVQLVESGGGLVQAGGSLRLSCAAYGRIFFYYVMGWYRQAPGNERELVAGITRGGISNYADSVKGRFTISRDNAKNTVYLQMNSLKPEDTAVYYCAAAYYRDSDRRYNYWGQGTQVTVSS | high polyreactivity |
| QVQLVESGGGLVQAGGSLRLSCAAYGRIFGGYAMGWYRQAPGKERELVAAISRRGGSTYYADSVKGRFTISRDNAKNTVYLQMNSLKPEDTAVYYCNAVLSVQARLTRVDYDYWGQGTEVTVSS | high polyreactivity |
| QVQLVESGGGLVQAGGSLRLSCAAYGRIFPLNAMGWNRQAPGKERELVAAISYDGGTYYAYSVKGRFTISRDNAKNTFYLQMNSLKPEDTAVYYCANSRATWVGKHDYWGQGTQVTVSS | low polyreactivity |
| QVQLVESGGGLVQAGGSLRLSCAAYGRIFRYNAMGWSTQAPGKERELVAAISRGGSSTYYADSVKGRFTISRDNAKNTVYLQMNSLQPEDTAVYYCNARSVVREFNNWGQGTQVTVSS | high polyreactivity |
| QVQLVESGGGLVQAGGSLRLSCAAYGRIFRYYAMGWYRQAPGKERELVVAISRSGSSTYYADSVKGRFTISRDNAKNTVYLQMNSLKPEDTAFYYCAAKLADQTRGTTSDSWGQGTQVTVSS | high polyreactivity |
| QVQLVESGGGLVQAGGSLRLSCAAYGRTFFSYTMGWYRQAPGKERELVASITWSGGSTYYADSVKGRFTISRDNAKNTVYLQMNSLKPEDTAVYYCAADEKLYITGYDYWGQGTQVNVSS | low polyreactivity |
| QVQLVESGGGLVQAGGSLRLSCAAYGRTFRIYAMGWYRQAPGKERELVATITWRAGSTYYADSVKGRFTISRDNAKYTVYLQMNSLKPEDTAVYYCAADVSAYSGGYWLDYWGQGTQVTVSS | high polyreactivity |
| QVQLVESGGGLVQAGGSLRLSCAAYGRTFRKNAMGWYRQAPVKERELVASMSKNGAGTYYADSVKGRFTISRDTAKNTVYLQMNSLKPEDTAVYYCAKLPNLPGDYWGQGTQVTVSS | low polyreactivity |
| QVQLVESGGGLVQAGGSLRLSCAAYGRTFWPNAMGWYRQAPGKERELVAAFSRRSGSTYYADSVKGRFTISRDNAKNTVYLQMNSLKPEDTAVYYCAAKYRAHGNHSWGQGTQVTVSS | high polyreactivity |
| QVQLVESGGGLVQAGGSLRLSCAAYGSIFFGNVMGWYRQAPGKARELVAVISWSGGTTYYADSVKGRFTISRDNAKNTVYLQMNSLKPEDTAVYYCNARYLRRGDYWGQGTQVTVSS | low polyreactivity |
| QVQLVESGGGLVQAGGSLRLSCAAYGSIFLYNALGGYIQAPGKEMELVADITSAGRTYYADSVKGRFTISRDNAKNTVYLQMNSLKPEDTAVYYCNKDYQYHFSWYGYWGQGTQVTVSS | low polyreactivity |
